Data taken from US20220098306A1 (Xencor, published 2022).

Target: T1, CD28-Fc-His protein (human, UniProt P10747 19-152)
T1 construct: Captured on anti-HIS (HIS1K) biosensors; also called CD28 antigen; not shown: Fc; His tag
Assay: Octet (BLI), CD28-Fc-His on HIS1K biosensors, 1:1 Langmuir and steady state fits
Excerpt: To investigate whether the difference observed for XENP34339 resulted from the difference in B7H3 binding domain or the difference in bispecific antibody format, the component binding domains of XENP34339 and XENP34389 were biophysically characterized using Octet. […] Anti-mouse Fc biosensors were used to capture mouse Fc fusions of B7H3, either the full extracellular V1C1-[…] domain or the individual V1C1 or V2C2 domains, and dipped into multiple concentrations of XENP34717 or XENP34728. Kinetic analyses were performed by global fitting of binding data with a 1:1 Langmuir binding model. […] Next, the binding affinities of the CD28 binding domains for CD28 antigen in the 2+1 CLC format and the 2+1 Fab2-scFv-Fc format was investigated. Anti-HIS capture (HIS1K) biosensors were used to capture CD28-Fc-His protein and dipped into multiple concentrations of XENP34339 or XENP34389. Kinetic analyses were performed by global fitting of binding data with a 1:1 Langmuir binding model as well as steady state model. The resulting dissociation constant (KD) are depicted in FIG. 53.

binding result: binds
B1: XENP34389 (bispecific antibody)
heavy 1: EVQLLESGGGLVQPGGSLRLSCAASGFTFSNYYMAWVRQAPGKGLEWVSSISTGGGSTYYRDSVKGRFTISRDNSKSTLYLQMNSLRAEDTAVYYCTTDLSAIAATPFAYWGQGTLVTVSSASTKGPSVFPLAPSSKSTSGGTAALGCLVKDYFPEPVTVSWNSGALTSGVHTFPAVLQSSGLYSLSSVVTVPSSSLGTQTYICNVNHKPSDTKVDKKVEPKSCDKTHTCPPCPAPPVAGPSVFLFPPKPKDTLMISRTPEVTCVVVDVKHEDPEVKFNWYVDGVEVHNAKTKPREEEYNSTYRVVSVLTVLHQDWLNGKEYKCKVSNKALPAPIEKTISKAKGQPREPQVYTLPPSREEMTKNQVSLTCDVSGFYPSDIAVEWESDGQPENNYKTTPPVLDSDGSFFLYSKLTVDKSRWEQGDVFSCSVMHEALHNHYTQKSLSLSPGK
heavy 2: not shown
light: DIQMTQSPSSLSASVGDRVTITCRASQNIYTSLAWYQQKPGKAPKLLIYNAHSLQTGIPSRFSGSGSGADFTLTISSLQPEDFATYFCQQYYSGLTFGSGTKLEIKRTVAAPSVFIFPPSDEQLKSGTASVVCLLNNFYPREAKVQWKVDNALQSGNSQESVTEQDSKDSTYSLSSTLTLSKADYEKHKVYACEVTHQGLSSPVTKSFNRGEC
notes: 2+1 Fab2-scFv-Fc; also called B7H3 x CD28 in 2+1 Fab2-scFv-Fc format; copies: 1 + 1 + 2
